Measured values published in patent US5670477A, “Method to enhance permeability of the blood/brain blood/nerve bariers to therapeutic agents” (Poduslo; Joseph F., priority 1995, dated 1997).
Where “and” joins values, the source holds several entries; their conditions need not be identical. Equal entries are not always repeated.

How the values were obtained:
[1] = PS and Vp of the blood-brain barrier, radioiodinated I.V. bolus; format: in vivo, rat (Sprague-Dawley)
Experimental: (§1) Free radioactive iodine was separated from the radiolabeled conjugates and agents by dialysis against 0.2M NaI.
(§2) After the final blood sample was collected, the animal was sacrificed, the brain and meninges removed, and the brain dissected into the cortex, caudateputamen (neostriatum), hippocampus, thalamus, brain stem, and cerebellum. The sciatic nerve was also rapidly removed and desheathed. Tissue was lyophilized, and dry weights were determined with a microbalance and converted to respective wet weights with wet weightry weight ratios previously determined for the desheathed rat sciatic nerve and the various brain regions. […] Statistical evaluations were performed using the t-test with significance accepted at the P<0.05 level.

[2] = plasma half-life from plasma clearance curves after I.V. bolus; conditions: for t1 (plasma half-life): Table 5, n = 6
Experimental: Animals and Reagents. Male Sprague-Dawley rats (24-weeks-old, 460-500 g) were obtained from Bio Lab (St. Paul) and were used to determine the PS and Vp measurements. All animals were kept for a minimum of 3 days under standard housing conditions and feeding schedules prior to the experiments. […] Insulin (Mr =6000) was obtained as humulin RU-100 from Eli Lily. […] Affinity purified human IgG was obtained from Accurate Chemicals (Mr =150,000). […] Plasma half-lives were determined from plasma clearance curves for all the proteins using the standard exponential decay equation in In Plot Scientific Graphics (Graph Pad Software).
The experimental protocol employed was based on the methods of Ohno et al. Am. […] Over the next 30 or 60 minutes, serial blood samples were collected from the brachial artery to generate a plasma washout curve.

[3] = PS and Vp of the blood-nerve barrier, radioiodinated I.V. bolus; format: in vivo, rat (Sprague-Dawley)
Experimental: as §1, §2

[4] = isoelectric focusing (Coomassie blue); format: physicochemical; conditions: Coomassie blue stain
Experimental: Protein samples were solubilized in SDS under reducing conditions with 2-mercaptoethanol followed by electrophoresis and staining with Coomassie blue. Pharmacia low molecular weight calibration kit was used for the protein standards. The 40% Bio-Lyte 3/10 ampholyte from Bio-Rad was used for isoelectric focusing with an acrylamide monomer concentration of 25% T and 3% C. Polymerization time was 15 minutes, with 5 minutes allowed for sample diffusion. Electrophoresis time was 45 minutes with increasing voltage to a maximum voltage of 450 volts for the last 15 minutes. IEF standards were obtained from Bio-Rad and contained nine natural proteins with the isoelectic points ranging from 4.45 to 9.6 and were visualized with Coomassie blue.

[5] = tested on: choline acetyltransferase (ChAT); test: choline acetyltransferase (ChAT) activity in brain regions after parenteral administration; format: in vivo, mouse (BALB/cJ)
Experimental: Adult BALB/cJ mice were used. The injection site was alternated on a daily basis between I.M. (thigh) and I.V. injection (tail vein), and the vehicle consisted of 1.5 mg/ml of BSA in 0.9% NaCl. The amount of NGF or PUT-NGF injected was 15 μg/day/animal for a duration of 14 days. Three groups of animals (n=7) were injected with either vehicle alone, NGF, and PUT-NGF. At the end of the experiment, the brains were removed and dissected into five regions which included the septum, hippocampus, nucleus basalis (substantia innominata), caudate-putamen (neostriatum), and cortex and stored at -70° C. The septum was dissected from the hippocampus at the fornix and continued into the basal forebrain.
Subsequently, a radiochemical assay using [1-^14 C] acetyl-CoA was performed according to the method of Fonnum. Fonnum, "A rapid radiochemical method for the determination of choline acetyltransferase", J. Neurochem., 24, 407 (1975). Data were expressed as cpm/μg protein and are given as mean ± SEM. Protein concentration was determined by the BCA procedure (Smith et al., "Measurement of protein using bicinchoninic acid", Anal. Biochem., 150, 76 (1985)) with the Pierce assay kit using bovine serum albumin as a standard. Statistical analysis was by the unpaired t-test (two-tailed) with significance accepted as P<0.05.

[6] = 15 μg/day/animal, 14 days, x ± SEM, n = 7

Molecule	PS of the BBB ([1]; brain stem, x ± SEM)	Vp of the BBB ([1]; brain stem, x ± SEM)	PS of the BBB ([1]; caudate-putamen, x ± SEM)	Vp of the BBB ([1]; caudate-putamen, x ± SEM)	PS of the BBB ([1]; cerebellum, x ± SEM)	Vp of the BBB ([1]; cerebellum, x ± SEM)	PS of the BBB ([1]; cortex, x ± SEM)	Vp of the BBB ([1]; cortex, x ± SEM)	Vp of the BBB ([1]; hippocampus, x ± SEM)	PS of the BBB ([1]; thalamus, x ± SEM)	PS of the BNB ([3]; nerve / endoneurium)	PS of the BNB ([3]; nerve, x ± SEM)	Vp (residual plasma volume) of the BNB ([3]; nerve, x ± SEM)	PS of the BBB ([1]; hippocampus, x ± SEM)	Vp of the BBB ([1]; thalamus, x ± SEM)	t1 (plasma half-life) ([2]; x ± SEM) [min]	pI (isoelectric point) [4]	also measured
INS: Insulin (Mr =6000) obtained as humulin RU-100 from Eli Lily [reference compound]	22.62 ± 3.35 ml/sec × 10^6	12.35 ± 0.99 µL/g	16.88 ± 1.79 ml/sec × 10^6	6.08 ± 0.30 µL/g	20.12 ± 2.78 ml/sec × 10^6	10.56 ± 0.96 µL/g	15.78 ± 2.45 ml/sec × 10^6	6.44 ± 0.49 µL/g	7.04 ± 0.68 µL/g	18.42 ± 2.41 ml/sec × 10^6	3.32e-05 mL/g/s	33.19 ± 2.05 ml/g/sec × 10^6	5.05 ± 0.87 µL/g	–	–	–	–	t1/2 (plasma half-life) ([2]; Table 4, x ± SEM, n = 5): 1.18 ± 0.09 min
SOD: superoxide dismutase isolated from bovine erythrocytes, monomeric molecular weight 16,250 daltons	3.19 ± 0.13 ml/g/sec × 10^6 and 3.13 ± 0.14 ml/g/sec × 10^6	13.77 ± 2.10 µL/g and 16.26 ± 1.22 µL/g	1.52 ± 0.07 ml/g/sec × 10^6 and 1.78 ± 0.11 ml/g/sec × 10^6	5.62 ± 0.23 µL/g and 5.76 ± 0.40 µL/g	2.94 ± 0.14 ml/g/sec × 10^6 and 2.69 ± 0.11 ml/g/sec × 10^6	10.20 ± 0.89 µL/g and 14.61 ± 1.09 µL/g	1.81 ± 0.06 ml/g/sec × 10^6 and 1.80 ± 0.09 ml/g/sec × 10^6	6.13 ± 0.34 µL/g and 5.77 ± 0.34 µL/g	7.94 ± 0.25 µL/g and 7.26 ± 0.77 µL/g	2.61 ± 0.15 ml/g/sec × 10^6 and 2.71 ± 0.20 ml/g/sec × 10^6	2.24 10^-6 mL/g/sec	1.79 ± 0.12 ml/g/sec × 10^6 and 2.24 ± 0.22 ml/g/sec × 10^6	1.87 ± 0.10 µL/g and 2.63 ± 0.22 µL/g	1.98 ± 0.08 ml/g/sec × 10^6 and 2.15 ± 0.01 ml/g/sec × 10^6	9.73 ± 0.43 µL/g and 12.83 ± 1.97 µL/g	3.64 ± 0.21	4.95	PS of the BBB ([1]; brain stem): 3.13e-06 mL/g/s; PS of the BBB relative to native albumin ([1]; brain stem): 54 fold; PS of the BBB ([1]; caudate-putamen): approximately 1.8 ×10^-6 ml/sec; PS of the BBB ([1]; cortex): approximately 1.8 ×10^-6 ml/sec; PS of the BBB relative to native albumin ([1]; cortex): 12 fold; PS of the BNB ([3]; nerve): 1.79 ± 0.12 10^-6 mL/g/sec; PS of the BNB relative to native albumin ([3]; nerve, albumin compared from Poduslo et al. 1994): approximately 22 fold
SPD-SOD: SOD modified with spermidine using water-soluble carbodiimide at pH 4.7	36.85 ± 1.70 ml/g/sec × 10^6	13.94 ± 1.29 µL/g	32.65 ± 2.03 ml/g/sec × 10^6	8.23 ± 0.40 µL/g	37.28 ± 1.01 ml/g/sec × 10^6	12.59 ± 0.90 µL/g	25.00 ± 0.90 ml/g/sec × 10^6	7.10 ± 0.31 µL/g	7.73 ± 0.58 µL/g	34.35 ± 1.42 ml/g/sec × 10^6	2.41e-05 mL/g/s	24.1 ± 1.23 ml/g/sec × 10^6	3.03 ± 0.35 µL/g	28.75 ± 1.39 ml/g/sec × 10^6	11.23 ± 0.63 µL/g	0.75 ± 0.05	–	PS of the BBB, RI vs. native protein ([1]; brain stem): 11.8; Vp of the BBB, RI vs. native protein ([1]; brain stem): 1.0; PS of the BBB, RI vs. native protein ([1]; caudate-putamen): 18.3; Vp of the BBB, RI vs. native protein ([1]; caudate-putamen): 1.4; PS of the BBB, RI vs. native protein ([1]; cerebellum): 13.9; Vp of the BBB, RI vs. native protein ([1]; cerebellum): 1.2; PS of the BBB, RI vs. native protein ([1]; cortex): 13.9; Vp of the BBB, RI vs. native protein ([1]; cortex): 1.2; PS of the BBB, RI vs. native protein ([1]; hippocampus): 13.4; Vp of the BBB, RI vs. native protein ([1]; hippocampus): 1.1; PS of the BBB, RI vs. native protein ([1]; thalamus): 12.7; Vp of the BBB, RI vs. native protein ([1]; thalamus): 1.2; decrease of plasma half-life versus native protein ([2]; fold less than native protein): 4.9 fold; PS of the BNB, RI vs. native protein ([3]; nerve): 10.8; PS of the BNB, relative increase vs. native protein ([3]; nerve): 10.8 fold; Vp of the BNB, RI vs. native protein ([3]; nerve): 1.2
NGF: Ultrapure 2.5S nerve growth factor (printed 2.55 NGF) from Harlan Bioproducts (protein, UniProt P01139 122-241, looked up) Beta-nerve growth factor: SSTHPVFHMGEFSVCDSVSVWVGDKTTATDIKGKEVTVLAEVNINNSVFRQYFFETKCRASNPVESGCRGIDSKHWNSYCTTTHTFVKALTTDEKQAAWRFIRIDTACVCVLSRKATRRG	3.38 ± 0.09 ml/g/sec × 10^6	16.60 ± 1.01 µL/g	1.64 ± 0.04 ml/g/sec × 10^6	5.78 ± 0.42 µL/g	2.93 ± 0.10 ml/g/sec × 10^6	11.54 ± 0.71 µL/g	1.91 ± 0.07 ml/g/sec × 10^6	7.19 ± 0.20 µL/g	8.56 ± 0.21 µL/g	2.79 ± 0.09 ml/g/sec × 10^6	–	1.74 ± 0.15 ml/g/sec × 10^6	1.53 ± 0.12 µL/g	2.30 ± 0.10 ml/g/sec × 10^6	11.65 ± 0.81 µL/g	–	major band with an isoelectric point less than cytochrome c	ChAT activity, caudate-putamen [5, 6]: 559 ± 47 cpm/μg protein; ChAT activity, cortex [5, 6]: 294 ± 9 cpm/μg protein; ChAT activity, hippocampus [5, 6]: 236 ± 17 cpm/μg protein; ChAT activity, nucleus basalis [5, 6]: 109 ± 15 cpm/μg protein; ChAT activity, septum [5, 6]: 443 ± 65 cpm/μg protein; ChAT activity versus comparator, in words ([5]; NGF vs vehicle: five brain regions, PUT-NGF vs NGF: hippocampus, caudate-putamen, cortex): no significant difference; ChAT activity, NGF vs. Vehicle % Increase ([5]; caudate-putamen): 18.4%; ChAT activity, NGF vs. Vehicle % Increase ([5]; cortex): 4.6%; ChAT activity, NGF vs. Vehicle % Increase ([5]; hippocampus): 0.4%; ChAT activity, NGF vs. Vehicle % Increase ([5]; nucleus basalis): 12.4%; ChAT activity, NGF vs. Vehicle % Increase ([5]; septum): 0.2%
